According to patent US20060121535:

Assays:
[1] = system: GST-EEEIYGEFE (SEQ. ID. NO: 1) fusion protein
GST-Crkl (SH3) = GST-Crkl (SH3) (UniProt P46109)
GST-Crkl (SH3), sequence (P46109 120-303): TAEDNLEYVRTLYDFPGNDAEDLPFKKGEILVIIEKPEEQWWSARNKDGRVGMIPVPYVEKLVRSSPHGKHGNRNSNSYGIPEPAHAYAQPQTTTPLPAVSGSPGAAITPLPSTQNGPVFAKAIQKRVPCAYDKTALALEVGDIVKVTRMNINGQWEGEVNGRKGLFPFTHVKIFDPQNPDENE

Row | Substance | Km of phosphorylation, substrate in solution (Lineweaver-Burk) [1] | Km of phosphorylation, surface-immobilized substrate (Lineweaver-Burk) [1] | Vmax of phosphorylation, substrate in solution (Lineweaver-Burk) [1] | Vmax of phosphorylation, surface-immobilized substrate (Lineweaver-Burk) [1] | Crkl phosphorylation in pure HL60 lysate (Bcr-Abl-) relative to pure K562 lysate (Bcr-Abl+) (GST-Crkl (SH3))
1 | protein-tyrosine kinase p60^c-src (Calbiochem) | Km=2.7±1.0 µM | Km=0.36±0.033 µM | Vmax=8.1±3.1 (arbitrary units) | Vmax=9.7±0.63 (arbitrary units) | 
2 | Bcr-Abl tyrosine kinase in K562 cell lysate |  |  |  |  | the level of Crkl phosphorylation in the pure HL60 cell lysate is only 3.5% of that observed in the pure K562 cell lysate
